The values that follow come from patent publication US20150274831A1 (Hoffmann-La Roche, published 2015).

B1: Mab 2F11 (antibody, V domains shown)
VH: QVQLKESGPGLVAPSQSLSITCTVSGFSLTTYDISWIRQSPGKGLEWLGVIWTDGGTNYNSPFMSRLSIRKDNSKSQVFLKMNRLQTDDTAIYYCVRDQRLYFDVWGAGTTVTVSS
VL: NIVMTQSPKSMSMSVGERVTLNCKASEDVNTYVSWYQQQPEQSPKLLIYGASNRYTGVPDRFTGGGSTTDFTLTISSVQAEDLADYFCGQSFSYPTFGTGTKLEIK
B2: Mab 1G10 (antibody, V domains shown)
VH: RVQLKESGPGLVAPSQSLSITCTVSGFSLTSYDISWIRQSPGKGLEWLGVIWSGGGTNYNSPFMSRLRISKDDSRSQVFLKVNRLQTDDTAIYYCVRDLRLYFDVWGAGTTVTVSS
VL: KIVMTQSPKSMSVSVGERVSLSCKASEDVGTYVSWYQQKPEQSPKLLIYGSSNRYTGVPDRFTGSGSATDFTLTISSVQAEDLADYSCGQSFTYPTFGTGTKLEIK
B3: Mab 2E10 (antibody, V domains shown)
VH: QVQLKESGPGLVAPSKSLSITCTVSGSSLDSFDISWIRQSPGKGLEWLGVIWTGGGTNYNSGFMSRLRITKDNSKSQVLLKMNSLQSDDTAIYYCVRDPRLYFDVWGAGTTVTVSS
VL: NIVMTQSPKSMSMSVGERVTLSCKASEDVVTYVSWYQQKPDQSPKLLIYGASNRYTGVPDRFTGSGSATDFTLTISSVQAEDLADYYCGQTFSYPTFGTGTKLEIK
B4: Mab 2H7 (antibody, V domains shown)
VH: QVQLKESGPGLVAPSKSLSITCTVSGSSLDSFDISWIRQPPGKGLEWLGVIWTGGGTNYNSGFMSRLRISKDNSKSQVFLKMSSLQSDDTAIYYCVRDPRLYFDVWGAGTTVTVSS
VL: NIVMTQSPKSMSMSVGERVTLSCKASEDVVTYVSWYQQKPEQSPKLLIYGASNRYTGVPDRFTGSGSATDFTLTISSIQAEDLADYYCGQTFSYPTFGTGTKLEIK

This assay addresses CSF-1R on cynomolgous monocytes (native receptor of CD14-enriched peripheral blood monocytes) (cynomolgous). Briefly: cell-based or functional assay.
B1: the “% inhibition (of survival) = (100% - % survival) (CellTiterGlo; cynomolgous monocytes with 150 ng/ml huCSF-1; 5 µg/ml antibody)” value (“% inhibition (of survival) =” below) is 96% and the “% survival (CellTiterGlo; cynomolgous monocytes with 150 ng/ml huCSF-1; 5 µg/ml antibody)” value was 4%.

On to B2, for which the “% inhibition (of survival) =” value came to 98% and the “% survival (CellTiterGlo; cynomolgous monocytes with 150 ng/ml huCSF-1; 5 µg/ml antibody)” value came to 2%.

As to B3, the “% inhibition (of survival) =” value was 83% and the “% survival (CellTiterGlo; cynomolgous monocytes with 150 ng/ml huCSF-1; 5 µg/ml antibody)” value was 17%.

Consider B4, for which the “% inhibition (of survival) =” value was determined as 92% and the “% survival (CellTiterGlo; cynomolgous monocytes with 150 ng/ml huCSF-1; 5 µg/ml antibody)” value turned out to be 8%.
